From patent US20120277143A1 (Janssen / Centocor, published 2012)

Assays:
[1] = molecular target: T1, human IL13 (human, UniProt P35225 35-146, biotinylated in the SPR assays (sites not given)); experiment: cell-based or functional assay
[2] = molecular target: T2, human IL4 (human, UniProt P05112 25-153, biotinylated in the SPR and competition assays (sites not given)); experiment: cell-based or functional assay
T2 sequence: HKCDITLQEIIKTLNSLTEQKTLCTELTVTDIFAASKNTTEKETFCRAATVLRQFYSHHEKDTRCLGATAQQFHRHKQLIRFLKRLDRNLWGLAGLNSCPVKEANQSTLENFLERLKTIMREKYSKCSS

[3] = molecular target: T2, human IL4; experiment: Affinity to IL4; method not re-described
[4] = molecular target: T1, human IL13; experiment: Affinity to IL13; method not re-described
[5] = molecular target: T2, human IL4; experiment: IL4R binding inhibition; repeats Table 17
Description: AR protein inhibition of IL4 binding to IL4 RA was assessed using IL4 RA-Fc (R&D Systems), comprising the Gly24-His232 which represents the ECD (SEQ ID NO: 5) fused to a human IgGl-Fc and therefor a disulfide linked homodimer. The protein was conjugated to carboxylated Luminex microspheres according to the manufacturer's protocol. For neutralization experiments, 5000 IL4RA-Fc conjugated beads in 50 μl were added to each well of a 96-well filter plate (Millipore). Biotinylated human IL4 was mixed with an appropriate dilution of AR protein in Luminex Assay Buffer (PBS, 1% BSA, pH 7.4) to give a final concentration of 67 pM IL4. The plate was incubated for 1 hour at RT in the dark on a plate shaker, set to shake vigorously to avoid bead aggregation. The plate was washed twice with 150 μl of wash buffer (PBS, 0.1% BSA, pH 7.4, 0.05% Tween-20) using a vacuum manifold followed by the addition of 50 μl of Streptavidin PE at 25 μg/ml and incubated at RT for 20 minutes. The plates were washed again and 150 μl of sheath fluid was added and the plate was placed on the shaker for 5 minute. Plates were read using a Luminex® 100 system; data were plotted as a function of AR protein concentration. IC₅₀ values were determined by fitting the data to the equation for sigmoidal dose response using PRISM software (GraphPAD PRISM) (Table 6).

[6] = molecular target: T3, human IL13 R130Q (human, UniProt P35225 35-146, biotinylated (sites not given)); experiment: IL13Ra2 binding inhibition; repeats Table 17
T3 construct: Peprotech; also called IL13R13Q; R111Q
Description: (§1) Binding protein inhibition of IL13 binding to Rα2 was assessed using IL13Rα2-Fc (R&D Systems) conjugated to carboxylated Luminex microspheres according to the manufacturer's protocol. For biotinylation of IL13, recombinant human IL13 R130Q (Peprotech) was biotinylated at a 4:1 ratio using EZ-Link NHS-LC-Biotin (Pierce, #21336) for 2 hours at RT. The protein was dialyzed in PBS overnight to remove excess biotinylation reagent. For neutralization experiments, 5000 IL13 Rα2-Fc conjugated beads in 50 μl were added to each well of a 96-well filter plate (Millipore). 50 μl of biotinylated human IL13 at 1 ng/ml (80 pM) was mixed with an appropriate dilution of binding protein in Luminex Assay Buffer (PBS, 1% BSA, pH 7.4). The plate was incubated for 1 hour at RT in the dark on a plate shaker, set to shake vigorously to avoid bead aggregation. The plate was washed 3 times with 150 μl of wash buffer (PBS, 1% BSA, pH 7.4, 0.05% Tween-20) using a vacuum manifold followed by the addition of 50 μl of Streptavidin PE at 25 μg/ml and incubated at RT for 20 minutes. The plates were washed again and 100 μl of sheath fluid was added and the plate was placed on the shaker for 1 minute. Plates were read using a Luminex® 100 system; data were plotted as a function of binding protein concentration. IC₅₀ values were determined by fitting the data to the equation for sigmoidal dose response using PRIZM software (GraphPAD PRIZM).

[7] = molecular target: T2, human IL4; experiment: IL4RA binding inhibition; assay not re-described (Luminex of Example 2)
[8] = molecular target: T3, human IL13 R130Q; experiment: IL13Ra2 binding inhibition; assay not re-described (Luminex of Example 2)
Description: as §1

T3 sequence (P35225 35-146 limits assumed, stated change not applied): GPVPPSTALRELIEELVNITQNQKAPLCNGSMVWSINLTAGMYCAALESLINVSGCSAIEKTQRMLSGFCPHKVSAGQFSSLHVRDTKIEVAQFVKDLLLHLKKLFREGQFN
T1 sequence (P35225 other isoform, or with tags, fused parts or gaps limits assumed): as the sequence (P35225 35-146 limits assumed, stated change not applied) above, with Q110R counted along it

B1: C06_28E5_V1_C01_6G9_V1 (designed binder)
chain: DLGKKLLEAARAGQDDEVRILMANGADVNAADDSGITPLHLAAEDGHLEIVEVLLKAGADVNAQDNLGDTPLHLAAWTGHLEIVEVLLKAGADVNAYDISGITPLHLAAFYGHLEIVEVLLKHGADVNAQDKFGKTAFDISIDNGNEDLAEILQKLNGGGGSGGGGSGGGGSGGGGSDLDKKLLEAARAGQDDEVRILMANGADVNARDSYGSTPLHLAAREGHLEIVEVLLKYGADVNAADFIGDTPLHLAAYRGHLEIVEVLLKYGADVNASDITGETPLHLAAQIGHLEIVEVLLKHGADVNAQDKFGKTAFDISIDNGNEDLAEILQKLN
notes: bispecific IL4/IL13 ankyrin repeat protein with (GGGGS)4 linker; also called bispecific AR protein
A549/TARC IL13 IC50 [1]: 0.084 nM
HEK Stat6 human IL13 IC50 [1]: 0.019 nM
A549/TARC IL4 IC50 [2]: 0.039 nM
HEK stat6 hIL4 IC50 [2]: 0.0011 nM
Ramos Assay IC50 [2]: 0.0054 nM
Kd [3]: 0.0217 nM
Kd [4]: 0.0106 nM
IC50 [5]: 0.025 nM
IC50 [6]: 0.036 nM
IC50 [7]: 0.025 nM
IC50 [8]: 0.036 nM

B2: C01_6G9_V1_C06_44C12_V2 (designed binder)
chain: DLDKKLLEAARAGQDDEVRILMANGADVNARDSYGSTPLHLAAREGHLEIVEVLLKYGADVNAADFIGDTPLHLAAYRGHLEIVEVLLKYGADVNASDITGETPLHLAAQIGHLEIVEVLLKHGADVNAQDKFGKTAFDISIDNGNEDLAEILQKLNGGGGSGGGGSGGGGSGGGGSDLGKKLLEAASAGQDDEVHILMANGADVNALDDSGYTPLHLAAEDGHLEIVEVLLKHGADVNAADRLGDTPLHLAAFVGHLEIVEVLLKAGADVNAVDLAGVTPLHVAAFYGHLEIVEVLLKAGADVNAQDKFGKTAFDISIDNGNEDLAEILQKLN
notes: bispecific IL13/IL4 ankyrin repeat protein with (GGGGS)4 linker; also called bispecific AR protein
A549/TARC IL13 IC50 [1]: 0.128 nM
HEK Stat6 human IL13 IC50 [1]: 0.015 nM
A549/TARC IL4 IC50 [2]: 0.055 nM
HEK stat6 hIL4 IC50 [2]: 0.0072 nM
Ramos Assay IC50 [2]: 0.0086 nM
Kd [3]: 0.002 nM
Kd [4]: 0.0091 nM
IC50 [5]: 0.025 nM
IC50 [6]: 0.023 nM
IC50 [7]: 0.025 nM
IC50 [8]: 0.023 nM

B3: C06_44C12_V2_C01_6G9_V1 (designed binder)
chain: DLGKKLLEAASAGQDDEVHILMANGADVNALDDSGYTPLHLAAEDGHLEIVEVLLKHGADVNAADRLGDTPLHLAAFVGHLEIVEVLLKAGADVNAVDLAGVTPLHVAAFYGHLEIVEVLLKAGADVNAQDKFGKTAFDISIDNGNEDLAEILQKLNGGGGSGGGGSGGGGSGGGGSDLDKKLLEAARAGQDDEVRILMANGADVNARDSYGSTPLHLAAREGHLEIVEVLLKYGADVNAADFIGDTPLHLAAYRGHLEIVEVLLKYGADVNASDITGETPLHLAAQIGHLEIVEVLLKHGADVNAQDKFGKTAFDISIDNGNEDLAEILQKLN
notes: as for B1
A549/TARC IL13 IC50 [1]: 0.063 nM
HEK Stat6 human IL13 IC50 [1]: 0.014 nM
A549/TARC IL4 IC50 [2]: 0.016 nM
HEK stat6 hIL4 IC50 [2]: 0.0007 nM
Ramos Assay IC50 [2]: 0.0058 nM
Kd [3]: 0.0017 nM
Kd [4]: 0.0116 nM
IC50 [5]: 0.017 nM
IC50 [6]: 0.028 nM
IC50 [7]: 0.017 nM
IC50 [8]: 0.028 nM

B4: C01_6G9_V1_C06_53G6_V1 (designed binder)
chain: DLDKKLLEAARAGQDDEVRILMANGADVNARDSYGSTPLHLAAREGHLEIVEVLLKYGADVNAADFIGDTPLHLAAYRGHLEIVEVLLKYGADVNASDITGETPLHLAAQIGHLEIVEVLLKHGADVNAQDKFGKTAFDISIDNGNEDLAEILQKLNGGGGSGGGGSGGGGSGGGGSDLGKKLLEAARAGQDDEVRILMANGADVNATDDWGDTLLHLAATDGHLEIVEVLLKAGADVNANDAIGDTPLHLAALYGHLEIVEVLLKYGADVNATDLHGFTPLHLAAFWGHLEIVEVLLKHGADVNAQDKFGKTAFDISIDNGNEDLAEILQKLN
notes: as for B2
A549/TARC IL13 IC50 [1]: 0.075 nM
HEK Stat6 human IL13 IC50 [1]: 0.015 nM
A549/TARC IL4 IC50 [2]: 0.024 nM
HEK stat6 hIL4 IC50 [2]: 0.0005 nM
Ramos Assay IC50 [2]: 0.0048 nM
Kd [3]: 0.0031 nM
Kd [4]: 0.0093 nM
IC50 [5]: 0.015 nM
IC50 [6]: 0.099 nM
IC50 [7]: 0.015 nM
IC50 [8]: 0.099 nM
